{
  "source": "patent US20100196361A1",
  "about": "“Method of inhibition of vascular development using an antibody” (DYAX CORP., priority 2003, published 2010)",
  "key": {"Tie1 [1]": {"system": "Tie1", "experiment": "Immunohistochemistry of mouse xenograft tumor sections (SW480)", "format": "binding", "settings": "biotinylated antibody 10 μg/ml, formalin-fixed paraffin sections", "procedure": "We determined if antibody E3 binds to mouse endothelial cells in mouse xenographs. Immunohistochemistry was performed with biotinylated E3 IgG1 (a,z allotype) antibody and control antibodies anti-CD31 (endothelial cell specific marker) and anti-PCNA (proliferating cell nuclear antigen). Formalin-fixed tumor tissues from a mouse-xenograph containing SW480 cells (ATCC) were tested for the binding pattern of the human anti-Tie1 antibody E3. 5 μm sections of paraffin embedded tissues were deparaffinized, rehydrated and pretreated with warm the citrate buffer (0.01 M sodium citrate, pH6 at 95° C.) for 45 min. The slides were cooled down in fresh citrate buffer for 20 min and rinsed with distilled water. The slides were hydrogen peroxide treated, (0.3% H2O2 in PBS), and preincubated with PBS, 5% FCS, 5% heat inactivated human serum (HS) for 1 hour. Between antibody incubations slides were washed 3 times 5 minutes in PBS. Biotinylated antibodies E3 and A2-SV were diluted to a concentration of 10 μg/ml in PBS, 10% HS and incubated for 1 hour at RT. Slides were then incubated with an avidin-HRP (Dako) for 30 minutes at room temperature. Staining was detected by AEC (Vector Laboratories, Burlingame) and H2O2. The peroxidase reaction was stopped with water and slides were counter-stained with haematoxylin. The tissues were evaluated for their binding reactivity."}, "Tie1 [2]": {"target": "Tie1 (Homo sapiens, UniProt P35590)", "sequence (P35590 22-1138)": "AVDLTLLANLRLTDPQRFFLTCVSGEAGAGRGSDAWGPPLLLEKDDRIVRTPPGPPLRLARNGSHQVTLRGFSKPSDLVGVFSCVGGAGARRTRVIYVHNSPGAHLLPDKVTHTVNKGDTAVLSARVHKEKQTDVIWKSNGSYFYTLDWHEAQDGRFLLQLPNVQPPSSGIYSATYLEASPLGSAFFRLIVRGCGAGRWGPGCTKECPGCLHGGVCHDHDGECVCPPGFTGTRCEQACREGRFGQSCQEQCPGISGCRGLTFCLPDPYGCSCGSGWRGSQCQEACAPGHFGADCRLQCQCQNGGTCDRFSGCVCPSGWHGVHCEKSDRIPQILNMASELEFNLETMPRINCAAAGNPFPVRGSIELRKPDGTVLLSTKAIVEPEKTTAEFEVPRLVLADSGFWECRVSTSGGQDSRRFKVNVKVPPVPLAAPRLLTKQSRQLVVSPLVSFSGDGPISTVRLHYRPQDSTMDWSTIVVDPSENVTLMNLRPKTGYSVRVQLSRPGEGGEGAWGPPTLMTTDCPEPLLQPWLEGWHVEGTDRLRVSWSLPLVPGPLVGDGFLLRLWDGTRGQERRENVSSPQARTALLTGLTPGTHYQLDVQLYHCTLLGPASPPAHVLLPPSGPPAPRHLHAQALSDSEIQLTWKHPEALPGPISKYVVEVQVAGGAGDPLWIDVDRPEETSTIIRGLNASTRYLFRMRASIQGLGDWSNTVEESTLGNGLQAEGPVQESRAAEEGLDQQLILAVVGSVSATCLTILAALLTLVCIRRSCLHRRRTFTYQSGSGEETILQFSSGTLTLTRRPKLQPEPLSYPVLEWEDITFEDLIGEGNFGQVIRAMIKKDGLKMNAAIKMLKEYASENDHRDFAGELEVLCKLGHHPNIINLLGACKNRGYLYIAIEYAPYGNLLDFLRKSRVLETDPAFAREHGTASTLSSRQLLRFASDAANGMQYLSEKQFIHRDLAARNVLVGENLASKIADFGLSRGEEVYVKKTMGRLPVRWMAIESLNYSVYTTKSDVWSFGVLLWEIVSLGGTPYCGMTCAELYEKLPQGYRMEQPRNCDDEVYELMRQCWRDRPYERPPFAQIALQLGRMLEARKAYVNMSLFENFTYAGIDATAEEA", "experiment": "Immunohistochemistry of matched tumor and normal tissue sections", "format": "binding", "settings": "frozen sections", "procedure": "To evaluate the binding of E3 to Tie1 in primary tumor and normal tissue the antibody was produced as an IgG and biotin labeled. The E3 antibody and two other anti Tie1 antibodies B2 and D11 were reformatted as full length IgG molecules. Nucleic acids encoding these IgGs were transiently transfected into HEK293T cells. Plasmid preparations for transient cell transfections were performed using the HP-[…]™ MIDI prep kit (Sigma, cat. no. NA0200). HEK293T cells (GenHunter Corp. cat. no. Q401) were seeded 24 hours before transfection; 6×10^6 cells were plated per 10-cm culture dish. Transfections were carried out using LIPOFECTAMINE™ 2000 reagent (Invitrogen, cat. no. 11668019) following the manufacturer's instructions. Five micrograms of plasmid DNA was used per 10-cm dish. Cells were cultured in DMEM (Invitrogen, cat. no. 31966021) supplemented with 10% “ultra-low IgG” fetal calf serum (Invitrogen, cat. no. 16250078), at 37° C., 5% CO2, in a water saturated atmosphere. Conditioned media were harvested 72 hours and 144 hours after transfection, pooled and sterile filtered.\nThe Tie1 antibodies were biotinylated using the EZ-link Sulfo-NHS-SS-Biotin (Pierce, Cat. 21331). For Tie1/Fc and Tie1-His, the reaction was performed for 2 hours on ice in 50 mM sodium carbonate buffer, pH 9.6, in the presence of a 5-fold molar excess of biotinylating agent. For the antibodies, the reaction was performed for 2 hours on ice in PBS, in the presence of a 15-fold molar excess of EZ-link Sulfo-NHS-SS-Biotin. The reaction was stopped by the addition of Tris-HCl, pH 7.5 (50 mM final concentration) followed by a 1-hour incubation on ice. Samples were then dialyzed against PBS.\nVarious normal and tumor tissue sections were stained with biotinylated antibodies. A mouse monoclonal anti-Tie1 antibody (7e8) (Alitalo laboratory, University of Helsinki) was used as a positive control. Sections without primary antibody served as negative control. All samples were fresh frozen tissues and staining was performed with the TSA-kit (Perkin-Elmer Life Sciences). After acetone fixation (10-20 min, −20° C.) the slides were treated with 0.73% H2O2 for 10 min to reduce endogenous peroxidase activity followed by blocking for 30 min with TNB buffer. Sections ([…] thick) were incubated with primary antibodies (10 μg/ml) overnight at 4° C. Sections with the mouse monoclonal anti-tie1 antibody (7e8) were treated with biotinylated anti-mouse antibodies (VectaStain) before the addition of streptavidin-HRP. Signal was amplified by using a TSA kit and the visualized by AEC (235 ml NaAc,15 ml AEC (stock solution: 1600 mg 3-amino-9-ethyl-carbazole and 480 ml N-dimethylformamide), 250 μl H2O2)."}},
  "data": [
    {"molecule": "E3: human anti-Tie1 antibody from phage Fab library, reformatted as IgG; HC variable SEQ ID NO:114, LC variable SEQ ID NO:116 (antibody, V domains shown, IgG constant regions; Synthetically generated peptide) VH: EVQLLESGGGLVQPGGSLRLSCAASGFTFSMYGMVWVRQAPGKGLEWVSVISPSGGNTGYADSVKGRFTISRDNSKNTLYLQVNSLRAEDTAVYYCARAPRGYSYGYYYWGQGTLVTVSSASTKGPSVFPLAPSSKSTSGG VL: DIQMTQSPLSLSASVGDRVTITCRASQGIGHYLAWYQQKPGKVPKLLIYTASTLQSGVPSRFSGSGSGTDFTLTINSLQPEDVATYYCQQFNSYPHTFGQGTRLDIK", "values": [
      {"measurement": "staining pattern in SW480 mouse xenograft sections", "setting": "Tie1 [1]", "result": "consistent with staining of mouse endothelial cell Tie1"},
      {"measurement": "staining of breast (mammary tissue)", "setting": "Tie1 [2]; 10 μg/ml", "result": "brightest staining in the veins and capillaries of the mammary tissue"},
      {"measurement": "staining of breast carcinoma", "setting": "Tie1 [2]; 10 μg/ml", "result": "stained also other structures in addition to vessels"},
      {"measurement": "staining of hypernephroma tissue", "setting": "Tie1 [2]; 10 μg/ml", "result": "clear staining"},
      {"measurement": "staining of kidney", "setting": "Tie1 [2]; 10 μg/ml", "result": "stained kidney tubules in addition to the vessels"},
      {"measurement": "staining of lung carcinoma", "setting": "Tie1 [2]; 10 μg/ml", "result": "stained structures other than vessels"},
      {"measurement": "staining of melanoma tissue", "setting": "Tie1 [2]; 10 μg/ml", "result": "also stained other surrounding structures"},
      {"measurement": "staining of normal lung", "setting": "Tie1 [2]; 10 μg/ml", "result": "stained especially clearly the large veins in the lung"},
      {"measurement": "staining of normal skin", "setting": "Tie1 [2]; 10 μg/ml", "result": "stained blood vessels very faintly"},
      {"measurement": "tissue specificity of vessel staining in normal tissues", "setting": "Tie1 [2]; biotinylated antibody 10 μg/ml", "result": "stained vessels in the lung and kidney but not in the skin"}
    ]}
  ]
}
